Data as given in patent US20120070432A1, “TREATMENT OF PANCREATIC CANCER USING A DR5 AGONIST IN COMBINATION WITH GEMCITABINE” (AMGEN INC., priority 2009, published 2012).

Key:
[1] = system: pancreatic cancer patients; details: gemcitabine alone, Moore et al.; cited from earlier work
[2] = system: patients with advanced solid tumors; details: cited from earlier work
[3] = system: patients with previously untreated metastatic pancreatic cancer; assay: Multi-center phase I trial of AMG 655 + gemcitabine; format: in vivo
Text: Example 2 describes the treatment of patients with metastatic pancreatic cancer with AMG 655 in combination with gemcitabine.
Conatumumab (AMG 655) is an investigational, fully human agonist monoclonal antibody (IgG1) that binds human death receptor 5 (DR5), activates caspases, and induces apoptosis in sensitive tumor cells. In a multi-center phase I trial to evaluate AMG 655 +gemcitabine in metastatic pancreatic patients. The primary endpoint was dose-limiting toxicity (DLT). Secondary endpoints included toxicity, pharmacokinetics, antibody formation, objective response rate, progression-free survival (PFS), 6-month and overall survival.
Eligible patients had previously untreated metastatic pancreatic cancer and ECOG PS (Eastern Cooperative Oncology Group Performance Status) 0 or 1. Patients were enrolled into sequential cohorts and received AMG 655 3 or 10 mg/kg IV days (D) 1 and 15 and gemcitabine 1000 mg/m^2IV D 1, 8, and 15 every 28 D. CT scans were obtained Q2 cycles.

[4] = dose cohorts 0.3, 1 and 3 mg/kg
[5] = of 13 patients with tumor-response data

In the case of `Nc1ccn([C@@H]2O[C@H](CO)[C@@H](O)C2(F)F)c(=O)n1` [gemcitabine], the “median overall survival (50% survival)” value [1] is listed as “approximately 6 months” and the “survival at 1 year” value [1] is listed as 17%.

For “AMG 655: fully human monoclonal agonist antibody (IgG1) that binds human death receptor 5 (DR5); CAS Registry Number 896731-82-1”, the DLTs ([2]; 0.3, 1, 3, 10 or 20 mg/kg IV Q2W, 16 patients) is listed as “No DLTs”, the “AMG 655-related serious AEs” value ([2]; 0.3-20 mg/kg IV Q2W, 16 patients) is listed as “No” and the MTD ([2]; 0.3-20 mg/kg IV Q2W) is listed as “not reached”. The “reduction in tumor volume by RECIST” value ([2]; NSCLC patient with partial response) was 46%, the “time on study of partial responder” value ([2]; NSCLC patient, remains on study) was over 48 weeks and the partial response ([2]; NSCLC, tumor-response data for 13 patients) was 1 patient. For the same compound, the “grade 3 or higher AMG 655-related AEs” value ([2]; both in the same patient, 0.3-mg/kg cohort) was “Fatigue and elevated serum lipase”, the “reduction in maximum standardized uptake value (SUVmax)” value ([2]; colorectal cancer patient with stable disease, metabolic partial response (FDG-PET)) was 34% and the half-life [2, 4] was about 240 h. The “kinetics (dose linearity)” value [2, 4] was “dose-linear kinetics”, the “anti-AMG 655 antibodies” value ([2]; monotherapy) was “No anti-AMG 655 antibodies were detected” and the progressive disease [2, 5] was 8 patients. For the same compound, the stable disease [2, 5] was 4 patients, the “patients reporting AMG 655-related AEs” value ([2]; of 16 patients) was “Nine” and the “treatment-related AE: fatigue” value ([2]; of 16 patients) was 3 patients. For the same compound, the “treatment-related AE: hypomagnesaemia” value ([2]; of 16 patients) was 3 patients, the “treatment-related AE: pyrexia” value ([2]; of 16 patients) was 4 patients and the tolerability ([2]; up to 20 mg/kg Q2W) was “well tolerated”. For the same compound, the “anti-AMG 655 antibodies” value ([3]; in combination with gemcitabine) was “No anti-AMG 655 antibodies were detected” and the “effect of AMG 655 on pharmacokinetic (PK) of gemcitabine” value ([3]; preliminary data) was “no effect”.
